Measurements published in patent US20140087995A1 (published 2014).
Numbered stars: 1 amine (or outer) side, 2 acyl side, 3 side chain; on linkers, the order of the positions; unused ones are H or OH. Bridge positions count the residues as written; N and C are the ends. Side chains are listed from the residue outwards. Ends that are not written are not given here. * marks the point of attachment. C20 diacid = O=C(O)CCCCCCCCCCCCCCCCCCC(=O)*; γGlu = O=C(O)[C@H](CCC(=O)[*:2])N[*:1]; AEEA = NCCOCCOCC(=O)O

B1: N^ε1-[2-[2-[2-[[(4S)-4-carboxy-4-(19-carboxynonadecanoylamino)butanoyl]amino]ethoxy]ethoxy]acetyl]-[Arg17,Pro21,Pro27]-h-amylin (peptide)
peptide: K([AEEA-γGlu-C20 diacid])CNTATCATQRLANFLRHSSPNFGAIPSSTNVGSNTY-NH2
modifications: disulfide 2-7; N-terminus assumed
SMILES: CC[C@H](C)[C@H](NC(=O)[C@H](C)NC(=O)CNC(=O)[C@H](Cc1ccccc1)NC(=O)[C@H](CC(N)=O)NC(=O)[C@@H]1CCCN1C(=O)[C@H](CO)NC(=O)[C@H](CO)NC(=O)[C@H](Cc1c[nH]cn1)NC(=O)[C@H](CCCNC(=N)N)NC(=O)[C@H](CC(C)C)NC(=O)[C@H](Cc1ccccc1)NC(=O)[C@H](CC(N)=O)NC(=O)[C@H](C)NC(=O)[C@H](CC(C)C)NC(=O)[C@H](CCCNC(=N)N)NC(=O)[C@H](CCC(N)=O)NC(=O)[C@@H](NC(=O)[C@H](C)NC(=O)[C@@H]1CSSC[C@H](NC(=O)[C@@H](N)CCCCNC(=O)COCCOCCNC(=O)CC[C@H](NC(=O)CCCCCCCCCCCCCCCCCCC(=O)O)C(=O)O)C(=O)N[C@@H](CC(N)=O)C(=O)N[C@@H]([C@@H](C)O)C(=O)N[C@@H](C)C(=O)N[C@@H]([C@@H](C)O)C(=O)N1)[C@@H](C)O)C(=O)N1CCC[C@H]1C(=O)N[C@@H](CO)C(=O)N[C@@H](CO)C(=O)N[C@H](C(=O)N[C@@H](CC(N)=O)C(=O)N[C@H](C(=O)NCC(=O)N[C@@H](CO)C(=O)N[C@@H](CC(N)=O)C(=O)N[C@H](C(=O)N[C@@H](Cc1ccc(O)cc1)C(N)=O)[C@@H](C)O)C(C)C)[C@@H](C)O
notes: h-amylin derivative; disulfide bridge and C-terminal amide as told for human amylin; also called compound 41
B2: N^ε1-[(4S)-4-carboxy-4-[[(4S)-4-carboxy-4-(19-carboxynonadecanoylamino)butanoyl]amino]butanoyl]-[Asp14,Arg17,Pro21,Pro27,Arg35]-h-amylin (peptide)
peptide: K([γGlu-γGlu-C20 diacid])CNTATCATQRLADFLRHSSPNFGAIPSSTNVGSRTY-NH2
modifications: disulfide 2-7; N-terminus assumed
SMILES: CC[C@H](C)[C@H](NC(=O)[C@H](C)NC(=O)CNC(=O)[C@H](Cc1ccccc1)NC(=O)[C@H](CC(N)=O)NC(=O)[C@@H]1CCCN1C(=O)[C@H](CO)NC(=O)[C@H](CO)NC(=O)[C@H](Cc1c[nH]cn1)NC(=O)[C@H](CCCNC(=N)N)NC(=O)[C@H](CC(C)C)NC(=O)[C@H](Cc1ccccc1)NC(=O)[C@H](CC(=O)O)NC(=O)[C@H](C)NC(=O)[C@H](CC(C)C)NC(=O)[C@H](CCCNC(=N)N)NC(=O)[C@H](CCC(N)=O)NC(=O)[C@@H](NC(=O)[C@H](C)NC(=O)[C@@H]1CSSC[C@H](NC(=O)[C@@H](N)CCCCNC(=O)CC[C@H](NC(=O)CC[C@H](NC(=O)CCCCCCCCCCCCCCCCCCC(=O)O)C(=O)O)C(=O)O)C(=O)N[C@@H](CC(N)=O)C(=O)N[C@@H]([C@@H](C)O)C(=O)N[C@@H](C)C(=O)N[C@@H]([C@@H](C)O)C(=O)N1)[C@@H](C)O)C(=O)N1CCC[C@H]1C(=O)N[C@@H](CO)C(=O)N[C@@H](CO)C(=O)N[C@H](C(=O)N[C@@H](CC(N)=O)C(=O)N[C@H](C(=O)NCC(=O)N[C@@H](CO)C(=O)N[C@@H](CCCNC(=N)N)C(=O)N[C@H](C(=O)N[C@@H](Cc1ccc(O)cc1)C(N)=O)[C@@H](C)O)C(C)C)[C@@H](C)O
notes: h-amylin derivative; disulfide bridge and C-terminal amide as told for human amylin; also called compound 52
B3: N^ε1-[(4S)-4-carboxy-4-[[(4S)-4-carboxy-4-(19-carboxynonadecanoylamino)butanoyl]amino]butanoyl]-[Asp14,Arg17,Pro21,Pro27,Asp35]-h-amylin (peptide)
peptide: K([γGlu-γGlu-C20 diacid])CNTATCATQRLADFLRHSSPNFGAIPSSTNVGSDTY-NH2
modifications: disulfide 2-7; N-terminus assumed
SMILES: CC[C@H](C)[C@H](NC(=O)[C@H](C)NC(=O)CNC(=O)[C@H](Cc1ccccc1)NC(=O)[C@H](CC(N)=O)NC(=O)[C@@H]1CCCN1C(=O)[C@H](CO)NC(=O)[C@H](CO)NC(=O)[C@H](Cc1c[nH]cn1)NC(=O)[C@H](CCCNC(=N)N)NC(=O)[C@H](CC(C)C)NC(=O)[C@H](Cc1ccccc1)NC(=O)[C@H](CC(=O)O)NC(=O)[C@H](C)NC(=O)[C@H](CC(C)C)NC(=O)[C@H](CCCNC(=N)N)NC(=O)[C@H](CCC(N)=O)NC(=O)[C@@H](NC(=O)[C@H](C)NC(=O)[C@@H]1CSSC[C@H](NC(=O)[C@@H](N)CCCCNC(=O)CC[C@H](NC(=O)CC[C@H](NC(=O)CCCCCCCCCCCCCCCCCCC(=O)O)C(=O)O)C(=O)O)C(=O)N[C@@H](CC(N)=O)C(=O)N[C@@H]([C@@H](C)O)C(=O)N[C@@H](C)C(=O)N[C@@H]([C@@H](C)O)C(=O)N1)[C@@H](C)O)C(=O)N1CCC[C@H]1C(=O)N[C@@H](CO)C(=O)N[C@@H](CO)C(=O)N[C@H](C(=O)N[C@@H](CC(N)=O)C(=O)N[C@H](C(=O)NCC(=O)N[C@@H](CO)C(=O)N[C@@H](CC(=O)O)C(=O)N[C@H](C(=O)N[C@@H](Cc1ccc(O)cc1)C(N)=O)[C@@H](C)O)C(C)C)[C@@H](C)O
notes: h-amylin derivative; disulfide bridge and C-terminal amide as told for human amylin; also called compound 2
B4: N{Alpha-1}-[(4S)-4-carboxy-4-(19-carboxynonadecanoylamino)butanoyl]-[Glu14,Arg17,Pro21,Pro27,Lys34]-h-amylin (peptide)
peptide: {C20 diacid-γGlu}-KCNTATCATQRLAEFLRHSSPNFGAIPSSTNVGKNTY-NH2
modifications: disulfide 2-7
SMILES: CC[C@H](C)[C@H](NC(=O)[C@H](C)NC(=O)CNC(=O)[C@H](Cc1ccccc1)NC(=O)[C@H](CC(N)=O)NC(=O)[C@@H]1CCCN1C(=O)[C@H](CO)NC(=O)[C@H](CO)NC(=O)[C@H](Cc1c[nH]cn1)NC(=O)[C@H](CCCNC(=N)N)NC(=O)[C@H](CC(C)C)NC(=O)[C@H](Cc1ccccc1)NC(=O)[C@H](CCC(=O)O)NC(=O)[C@H](C)NC(=O)[C@H](CC(C)C)NC(=O)[C@H](CCCNC(=N)N)NC(=O)[C@H](CCC(N)=O)NC(=O)[C@@H](NC(=O)[C@H](C)NC(=O)[C@@H]1CSSC[C@H](NC(=O)[C@H](CCCCN)NC(=O)CC[C@H](NC(=O)CCCCCCCCCCCCCCCCCCC(=O)O)C(=O)O)C(=O)N[C@@H](CC(N)=O)C(=O)N[C@@H]([C@@H](C)O)C(=O)N[C@@H](C)C(=O)N[C@@H]([C@@H](C)O)C(=O)N1)[C@@H](C)O)C(=O)N1CCC[C@H]1C(=O)N[C@@H](CO)C(=O)N[C@@H](CO)C(=O)N[C@H](C(=O)N[C@@H](CC(N)=O)C(=O)N[C@H](C(=O)NCC(=O)N[C@@H](CCCCN)C(=O)N[C@@H](CC(N)=O)C(=O)N[C@H](C(=O)N[C@@H](Cc1ccc(O)cc1)C(N)=O)[C@@H](C)O)C(C)C)[C@@H](C)O
notes: h-amylin derivative; disulfide bridge and C-terminal amide as told for human amylin; also called compound 36
B5: N^ε-[(4S)-4-carboxy-4-(19-carboxynonadecanoylamino)butanoyl]Lys[Arg1,Arg17,Pro21,Pro27,His35]-h-amylin (peptide)
peptide: K([γGlu-C20 diacid])RCNTATCATQRLANFLRHSSPNFGAIPSSTNVGSHTY-NH2
modifications: disulfide 3-8; N-terminus assumed
SMILES: CC[C@H](C)[C@H](NC(=O)[C@H](C)NC(=O)CNC(=O)[C@H](Cc1ccccc1)NC(=O)[C@H](CC(N)=O)NC(=O)[C@@H]1CCCN1C(=O)[C@H](CO)NC(=O)[C@H](CO)NC(=O)[C@H](Cc1c[nH]cn1)NC(=O)[C@H](CCCNC(=N)N)NC(=O)[C@H](CC(C)C)NC(=O)[C@H](Cc1ccccc1)NC(=O)[C@H](CC(N)=O)NC(=O)[C@H](C)NC(=O)[C@H](CC(C)C)NC(=O)[C@H](CCCNC(=N)N)NC(=O)[C@H](CCC(N)=O)NC(=O)[C@@H](NC(=O)[C@H](C)NC(=O)[C@@H]1CSSC[C@H](NC(=O)[C@H](CCCNC(=N)N)NC(=O)[C@@H](N)CCCCNC(=O)CC[C@H](NC(=O)CCCCCCCCCCCCCCCCCCC(=O)O)C(=O)O)C(=O)N[C@@H](CC(N)=O)C(=O)N[C@@H]([C@@H](C)O)C(=O)N[C@@H](C)C(=O)N[C@@H]([C@@H](C)O)C(=O)N1)[C@@H](C)O)C(=O)N1CCC[C@H]1C(=O)N[C@@H](CO)C(=O)N[C@@H](CO)C(=O)N[C@H](C(=O)N[C@@H](CC(N)=O)C(=O)N[C@H](C(=O)NCC(=O)N[C@@H](CO)C(=O)N[C@@H](Cc1c[nH]cn1)C(=O)N[C@H](C(=O)N[C@@H](Cc1ccc(O)cc1)C(N)=O)[C@@H](C)O)C(C)C)[C@@H](C)O
notes: h-amylin derivative, N-terminally extended by one residue; disulfide bridge and C-terminal amide as told for human amylin; also called compound 44
B6: N^ε1-[2-[2-[2-(19-carboxynonadecanoylamino)ethoxy]ethoxy]acetyl]-[Arg17,Pro21,Pro27]-h-amylin (peptide)
peptide: K([AEEA-C20 diacid])CNTATCATQRLANFLRHSSPNFGAIPSSTNVGSNTY-NH2
modifications: disulfide 2-7; N-terminus assumed
SMILES: CC[C@H](C)[C@H](NC(=O)[C@H](C)NC(=O)CNC(=O)[C@H](Cc1ccccc1)NC(=O)[C@H](CC(N)=O)NC(=O)[C@@H]1CCCN1C(=O)[C@H](CO)NC(=O)[C@H](CO)NC(=O)[C@H](Cc1c[nH]cn1)NC(=O)[C@H](CCCNC(=N)N)NC(=O)[C@H](CC(C)C)NC(=O)[C@H](Cc1ccccc1)NC(=O)[C@H](CC(N)=O)NC(=O)[C@H](C)NC(=O)[C@H](CC(C)C)NC(=O)[C@H](CCCNC(=N)N)NC(=O)[C@H](CCC(N)=O)NC(=O)[C@@H](NC(=O)[C@H](C)NC(=O)[C@@H]1CSSC[C@H](NC(=O)[C@@H](N)CCCCNC(=O)COCCOCCNC(=O)CCCCCCCCCCCCCCCCCCC(=O)O)C(=O)N[C@@H](CC(N)=O)C(=O)N[C@@H]([C@@H](C)O)C(=O)N[C@@H](C)C(=O)N[C@@H]([C@@H](C)O)C(=O)N1)[C@@H](C)O)C(=O)N1CCC[C@H]1C(=O)N[C@@H](CO)C(=O)N[C@@H](CO)C(=O)N[C@H](C(=O)N[C@@H](CC(N)=O)C(=O)N[C@H](C(=O)NCC(=O)N[C@@H](CO)C(=O)N[C@@H](CC(N)=O)C(=O)N[C@H](C(=O)N[C@@H](Cc1ccc(O)cc1)C(N)=O)[C@@H](C)O)C(C)C)[C@@H](C)O
notes: h-amylin derivative; disulfide bridge and C-terminal amide as told for human amylin; also called compound 43

Molecular target: T1, human calcitonin receptor (human, UniProt P30988 25-474)
T1 sequence (looked up): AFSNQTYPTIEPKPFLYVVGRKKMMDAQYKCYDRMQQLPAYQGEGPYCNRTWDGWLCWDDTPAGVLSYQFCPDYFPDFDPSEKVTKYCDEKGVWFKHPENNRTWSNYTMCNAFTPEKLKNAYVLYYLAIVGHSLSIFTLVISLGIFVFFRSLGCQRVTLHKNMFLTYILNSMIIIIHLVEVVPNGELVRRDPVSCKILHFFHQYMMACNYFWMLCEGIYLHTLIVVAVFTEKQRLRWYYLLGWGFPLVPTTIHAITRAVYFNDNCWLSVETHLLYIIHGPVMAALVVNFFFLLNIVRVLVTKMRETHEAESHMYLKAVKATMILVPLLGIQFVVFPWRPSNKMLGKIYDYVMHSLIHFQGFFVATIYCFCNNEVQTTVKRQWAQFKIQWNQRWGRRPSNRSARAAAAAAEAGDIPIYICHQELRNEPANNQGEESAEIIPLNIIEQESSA
Experiment: cell-based or functional assay

| hCTR funct. EC50 [nM] | Binder |
| --- | --- |
| 4.35 | B1 |
| 14.1 | B2 |
| 3 | B3 |
| 1.28 | B4 |
| 4.75 | B5 |
| 0.92 | B6 |
